Data on one protein can be found in paper doi:10.1101/784462, “Rv3722c governs aspartate-dependent nitrogen metabolism in Mycobacterium tuberculosis” (bioRxiv, 2019).

This series deals with the molecule itself. In words: crystal structure; Rv3722c (~40 mg/mL) co-crystallised with 5 mM L-glutamic acid (PDB 6U78) or 10 mM L-kynurenine (PDB 6U7A), sitting drop vapor diffusion at 17 °C.

B1: Rv3722c (aspartate aminotransferase of Mycobacterium tuberculosis) (enzyme)
chain: SFDSLSPQELAALHARHQQDYAALQGMKLALDLTRGKPSAEQLDLSNQLLSLPGDDYRDPEGTDTRNYGGQHGLPGLRAIFAELLGIAVPNLIAGNNSSLELMHDIVAFSMLYGGVDSPRPWIQEQDGIKFLCPVPGYDRHFAITETMGIEMIPIPMLQDGPDVDLIEELVAVDPAIKGMWTVPVFGNPSGVTYSWETVRRLVQMRTAAPDFRLFWDNAYAVHTLTLDFPRQVDVLGLAAKAGNPNRPYVFASTSKITFAGGGVSFFGGSLGNIAWYLQYAGKKSIGPDKVNQLRHLRFFGDADGVRLHMLRHQQILAPKFALVAEVLDQRLSESKIASWTEPKGGYFISLDVLPGTARRTVALAKDVGIAVTEAGASFPYRKDPDDKNIRIAPSFPSVPDLRNAVDGLATCALLAATETLLNQGLASSAPNVR
notes: also called AspAT; not shown: His6, C-terminal, cleaved
In the case of B1, the binding result was “binds”.
